Measurements: the supplement of paper PMC10567573

B1: CHMP4C (parent)
chain: TNIRLPNVPSSSLPAQPNRKPGMS

Variants of: B1
Assay: protein stability index of a GFP-peptide fusion (GPS, HEK-293T) (PSI 1-6); higher = more stable
Details: c terminus: a fixed tail appended
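Note: lentivirally expressed fusions sorted by FACS into six bins by GFP to DsRed ratio, PSI derived from sequencing read proportions per bin multiplied by bin number.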

Compared with TNIRLPNIPSSSLPAQPNRKPGMS, TNIRLPNNPSSSLPAQPNRKPGMS is lower in protein stability index: 4.76 for the first, 4.58 for the second.

First: TNIRLPNWPSSSLPAQPNRKPGMS
Second: TNIRLPNTPSSSLPAQPNRKPGMS
The protein stability index of the first is lower: 4.19 for the first, 4.69 for the second.

First: TNIRLPNAPSSSLPAQPNRKPGMS
Second: TNIRLPNLPSSSLPAQPNRKPGMS
The protein stability index of the first is higher: 4.51 for the first, 4.4 for the second.

First: TNIRLPNYPSSSLPAQPNRKPGMS
Second: TNIRLPNGPSSSLPAQPNRKPGMS
The protein stability index of the first is lower: 4.02 for the first, 4.47 for the second.

Compared with TNIRLPNQPSSSLPAQPNRKPGMS, TNIRLPNKPSSSLPAQPNRKPGMS is higher in protein stability index: 4.43 for the first, 4.63 for the second.

Going from TNIRLPNFPSSSLPAQPNRKPGMS to TNIRLPNMPSSSLPAQPNRKPGMS, the protein stability index rises from 4.29 to 4.61.

Compared with TNIRLPNSPSSSLPAQPNRKPGMS, TNIRLPNPPSSSLPAQPNRKPGMS is higher in protein stability index: 4.49 for the first, 5.05 for the second.

First: TNIRLPNDPSSSLPAQPNRKPGMS
Second: TNIRLPNEPSSSLPAQPNRKPGMS
The protein stability index of the first is lower: 4.54 for the first, 5.14 for the second.

Going from TNIRLPNCPSSSLPAQPNRKPGMS to TNIRLPNVPQSSLPAQPNRKPGMS, the protein stability index rises from 3.99 to 4.73.

Going from TNIRLPNVPESSLPAQPNRKPGMS to TNIRLPNVPYSSLPAQPNRKPGMS, the protein stability index falls from 4.51 to 4.22.

Compared with TNIRLPNVPGSSLPAQPNRKPGMS, TNIRLPNVPMSSLPAQPNRKPGMS is lower in protein stability index: 4.75 for the first, 4.48 for the second.

Going from TNIRLPNVPTSSLPAQPNRKPGMS to TNIRLPNVPLSSLPAQPNRKPGMS, the protein stability index falls from 4.1 to 4.09.

Compared with TNIRLPNVPNSSLPAQPNRKPGMS, TNIRLPNVPCSSLPAQPNRKPGMS is higher in protein stability index: 3.58 for the first, 4.83 for the second.

Going from TNIRLPNVPWSSLPAQPNRKPGMS to TNIRLPNVPPSSLPAQPNRKPGMS, the protein stability index falls from 4.46 to 4.39.

First: TNIRLPNVPKSSLPAQPNRKPGMS
Second: TNIRLPNVPVSSLPAQPNRKPGMS
The protein stability index of the first is higher: 4.24 for the first, 4.2 for the second.

Compared with TNIRLPNVPHSSLPAQPNRKPGMS, TNIRLPNVPASSLPAQPNRKPGMS is lower in protein stability index: 4.76 for the first, 4.62 for the second.

Going from TNIRLPNVPDSSLPAQPNRKPGMS to TNIRLPNVPRSSLPAQPNRKPGMS, the protein stability index falls from 4.84 to 4.06.

First: TNIRLPNVPFSSLPAQPNRKPGMS
Second: TNIRLPNVPISSLPAQPNRKPGMS
The protein stability index of the first is lower: 4.05 for the first, 4.6 for the second.

Going from TNCRLPNVPSSSLPAQPNRKPGMS to TNYRLPNVPSSSLPAQPNRKPGMS, the protein stability index falls from 4.55 to 4.33.

Compared with TNQRLPNVPSSSLPAQPNRKPGMS, TNSRLPNVPSSSLPAQPNRKPGMS is lower in protein stability index: 4.87 for the first, 4.71 for the second.

First: TNVRLPNVPSSSLPAQPNRKPGMS
Second: TNNRLPNVPSSSLPAQPNRKPGMS
The protein stability index of the first is lower: 4.54 for the first, 4.81 for the second.

Compared with TNMRLPNVPSSSLPAQPNRKPGMS, TNDRLPNVPSSSLPAQPNRKPGMS is lower in protein stability index: 4.76 for the first, 4.63 for the second.

Going from TNRRLPNVPSSSLPAQPNRKPGMS to TNWRLPNVPSSSLPAQPNRKPGMS, the protein stability index falls from 4.41 to 4.13.

Compared with TNFRLPNVPSSSLPAQPNRKPGMS, TNTRLPNVPSSSLPAQPNRKPGMS is higher in protein stability index: 4.2 for the first, 4.82 for the second.

First: TNKRLPNVPSSSLPAQPNRKPGMS
Second: TNHRLPNVPSSSLPAQPNRKPGMS
The protein stability index of the first is lower: 3.99 for the first, 4.62 for the second.

Compared with TNGRLPNVPSSSLPAQPNRKPGMS, TNARLPNVPSSSLPAQPNRKPGMS is higher in protein stability index: 4.72 for the first, 4.73 for the second.

Going from TNLRLPNVPSSSLPAQPNRKPGMS to TNPRLPNVPSSSLPAQPNRKPGMS, the protein stability index rises from 4.26 to 4.77.

Going from TNERLPNVPSSSLPAQPNRKPGMS to TNIRLPNVPSCSLPAQPNRKPGMS, the protein stability index falls from 4.92 to 4.86.

Going from TNIRLPNVPSVSLPAQPNRKPGMS to TNIRLPNVPSDSLPAQPNRKPGMS, the protein stability index rises from 4.13 to 4.94.

Going from TNIRLPNVPSKSLPAQPNRKPGMS to TNIRLPNVPSASLPAQPNRKPGMS, the protein stability index rises from 4.49 to 4.87.

First: TNIRLPNVPSMSLPAQPNRKPGMS
Second: TNIRLPNVPSHSLPAQPNRKPGMS
The protein stability index of the first is lower: 3.73 for the first, 4.6 for the second.

Going from TNIRLPNVPSESLPAQPNRKPGMS to TNIRLPNVPSRSLPAQPNRKPGMS, the protein stability index rises from 4.1 to 4.79.

Going from TNIRLPNVPSWSLPAQPNRKPGMS to TNIRLPNVPSGSLPAQPNRKPGMS, the protein stability index rises from 3.97 to 4.51.

Going from TNIRLPNVPSFSLPAQPNRKPGMS to TNIRLPNVPSNSLPAQPNRKPGMS, the protein stability index rises from 4.12 to 4.19.

First: TNIRLPNVPSISLPAQPNRKPGMS
Second: TNIRLPNVPSTSLPAQPNRKPGMS
The protein stability index of the first is higher: 4.68 for the first, 3.48 for the second.

Going from TNIRLPNVPSQSLPAQPNRKPGMS to TNIRLPNVPSLSLPAQPNRKPGMS, the protein stability index falls from 4.53 to 4.01.

Going from TNIRLPNVPSPSLPAQPNRKPGMS to TNIRLPNVPSYSLPAQPNRKPGMS, the protein stability index falls from 4.61 to 4.28.

Compared with TNIRFPNVPSSSLPAQPNRKPGMS, TNIREPNVPSSSLPAQPNRKPGMS is higher in protein stability index: 4.38 for the first, 4.46 for the second.

First: TNIRKPNVPSSSLPAQPNRKPGMS
Second: TNIRQPNVPSSSLPAQPNRKPGMS
The protein stability index of the first is higher: 4.71 for the first, 4.69 for the second.

Compared with TNIRRPNVPSSSLPAQPNRKPGMS, TNIRAPNVPSSSLPAQPNRKPGMS is higher in protein stability index: 4.42 for the first, 4.71 for the second.

Going from TNIRNPNVPSSSLPAQPNRKPGMS to TNIRTPNVPSSSLPAQPNRKPGMS, the protein stability index rises from 4.68 to 4.74.

Compared with TNIRGPNVPSSSLPAQPNRKPGMS, TNIRWPNVPSSSLPAQPNRKPGMS is lower in protein stability index: 5.1 for the first, 4.31 for the second.

First: TNIRMPNVPSSSLPAQPNRKPGMS
Second: TNIRYPNVPSSSLPAQPNRKPGMS
The protein stability index of the first is higher: 4.76 for the first, 4.58 for the second.

Compared with TNIRCPNVPSSSLPAQPNRKPGMS, TNIRIPNVPSSSLPAQPNRKPGMS is lower in protein stability index: 4.92 for the first, 4.61 for the second.

Compared with TNIRVPNVPSSSLPAQPNRKPGMS, TNIRHPNVPSSSLPAQPNRKPGMS is lower in protein stability index: 4.7 for the first, 4.62 for the second.

Going from TNIRDPNVPSSSLPAQPNRKPGMS to TNIRPPNVPSSSLPAQPNRKPGMS, the protein stability index falls from 5.05 to 4.88.

Going from TNIRSPNVPSSSLPAQPNRKPGMS to TNIRLPNVPSSALPAQPNRKPGMS, the protein stability index rises from 4.18 to 4.51.
